Where a chain is given by its changes, count along the chain named. Values belong to the binder of their own block, whether it stands above or below them.
Tests used:
human MSLN-His-Avi [1] = biological target: T1, human MSLN-His-Avi (human, UniProt Q13421 296-598, single biotin (BirA) in the biotinylated form); experiment: SPR as Example 4.1 (about 40 RU instead of 100), MSLN in solution
T1 construct: Monomeric, made in HEK293-6E; Used both immobilised and in solution; also called hMSLN-His-Avi; biotinylated hMSLN-His-Avi
T1 sequence (Q13421 other isoform, or with tags, fused parts or gaps): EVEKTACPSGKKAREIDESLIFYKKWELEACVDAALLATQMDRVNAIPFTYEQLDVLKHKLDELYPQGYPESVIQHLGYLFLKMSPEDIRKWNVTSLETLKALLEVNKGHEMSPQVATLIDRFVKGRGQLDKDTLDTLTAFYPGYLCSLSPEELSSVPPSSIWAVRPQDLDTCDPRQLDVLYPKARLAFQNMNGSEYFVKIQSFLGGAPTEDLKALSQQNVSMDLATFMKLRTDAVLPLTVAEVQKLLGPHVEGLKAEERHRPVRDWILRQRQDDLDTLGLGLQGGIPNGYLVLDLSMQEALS

human MSLN-His-Avi [2] = biological target: T1, human MSLN-His-Avi; experiment: SPR as Example 4.1 (about 40 RU instead of 100), MSLN immobilised
human MSLN-His-Avi [3] = biological target: T1, human MSLN-His-Avi; experiment: ratio of the two SPR KD
[4] = biological target: T2, cell surface human mesothelin (MSLN) (human, UniProt Q13421 296-598); experiment: flow cytometry, NCI-H226 cells (n = 3)
T2 construct: whole, on cells; also called cell surface MSLN
T2 sequence (Q13421 other isoform, or with tags, fused parts or gaps limits assumed): as the sequence (Q13421 other isoform, or with tags, fused parts or gaps) above
Procedure: Briefly, NCI-H226 cells (ATCC CRL-5826) were harvested from T175 cell culture flasks using StemPro Accutase (Gibco, A11105-01). Cells were centrifuged at 1200 rpm for 3 min and resuspended in ice cold FACS buffer made up of DPBS (Life Technologies, 14190169) and 1% BSA (Sigma-Aldrich, A7906) at 2×10⁶ cells/ml and 50 μl per well was seeded in a 96-well V-bottom plate (Costar, 3894). All mAbs tested were diluted in FACS buffer in 120 μl at a concentration range of 0.01-200 nM (4-fold dilutions). The NCI-H226 cells were then centrifuged, supernatant removed and cells resuspended in 100 μl of each mAb dilution and incubated at 4° C. for 45 min. Cells were washed twice by centrifugation with 150 μl FACS buffer, resuspended in 100 μl containing goat anti-human IgG (γ-chain specific) F(ab′)2 fragment-R-Phycoerythrin antibody (Sigma, P8047) diluted 1:1000 in FACS buffer and incubated at 4° C. for 45 min. The cells were washed once with 150 μl FACS buffer and then with 150 μl DPBS, resuspended in 150 μl DPBS containing DAPI (Biotium, 40043) at 1:10.000 and read on the BDCantoll or iQue (Intellicyt). Data was analysed using FlowJo v10 to determine the signal geometric mean for PE for live cells in each well.

human MSLN-His-Avi [5] = biological target: T1, human MSLN-His-Avi; experiment: SPR (Biacore), hMSLN-His-Avi immobilised at 100 RU, mAb injected
Procedure: (§1) Human MSLN-His-Avi was immobilised on flow cell 2 on a CM5 Series S BIAcore sensor chip (GE Healthcare, BR100530) using an amine coupling kit (GE Healthcare, BR10050) to approximately 200 response units (RU). Flow cell 1 was left blank for subtraction. HEK293-6E supernatants or purified proteins were adjusted with HBS-EP+(GE Healthcare) to approximately 50 nM anti-MSLN mAb per sample. Samples were injected over flow cell 1 and 2 for 2.5 min at 30 μl/min and then allowed to dissociate in HBS-EP buffer for 2.5 min. Regeneration was achieved by injecting 10 mM glycine pH 1.5 (GE Healthcare, BR100354) for 30 seconds at a rate of 30 μl/min. Subtracted data (flow cell 2−flow cell 1) were analysed using BIAevaluation 3.2 Software (GE Healthcare).
(§2) For each bin described in 2.1.3, the binding kinetics were determined using the same method as described in section 2.1.2, except that human or cyno MSLN-His-Avi was immobilised at 50 or 100 RU. Clones were tested at a concentration range of 81 nM to 0.33 nM in 3-fold dilutions.

human MSLN-His-Avi [6] = biological target: T1, human MSLN-His-Avi; experiment: SPR (Biacore), hMSLN-His-Avi immobilised at 50 RU, mAb injected
Procedure: as §1, §2

[7] = biological target: human Thrombomodulin (Peprotech, 100-58) (human, UniProt P07204 19-515); experiment: ELISA, antigen coated at 1 ug/ml
Sequence of human Thrombomodulin (Peprotech, 100-58) (P07204 19-515 limits assumed): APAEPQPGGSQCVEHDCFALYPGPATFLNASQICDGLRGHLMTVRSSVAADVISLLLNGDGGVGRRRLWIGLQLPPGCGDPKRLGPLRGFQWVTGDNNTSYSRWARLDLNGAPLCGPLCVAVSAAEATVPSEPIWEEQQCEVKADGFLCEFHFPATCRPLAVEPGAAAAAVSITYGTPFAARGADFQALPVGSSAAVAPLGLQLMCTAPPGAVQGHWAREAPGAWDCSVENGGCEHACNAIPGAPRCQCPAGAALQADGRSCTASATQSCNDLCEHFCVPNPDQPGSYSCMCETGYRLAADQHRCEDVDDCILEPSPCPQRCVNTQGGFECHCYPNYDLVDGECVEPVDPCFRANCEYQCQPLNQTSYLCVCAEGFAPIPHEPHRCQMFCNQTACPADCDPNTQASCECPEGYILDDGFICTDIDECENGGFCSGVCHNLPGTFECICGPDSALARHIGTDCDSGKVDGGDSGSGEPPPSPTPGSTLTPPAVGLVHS
Procedure: (§3) A similar protocol was used as described in section 1.2.1 in which maxisorp plates were coated with 1 μg/ml of recombinant human MSLN-His-Avi, human CEACAM-5-His-Fc (Sino Biological, 1077-H03H), human E-Cadherin (R&D systems, 8505-EC), human Thrombomodulin (Peprotech, 100-58) or human EpCAM-hFc (in-house production). Binding of the anti-MSLN mAbs, tested at a concentration range of 0.02 to 1000 nM (3-fold dilutions) was detected using anti-human Fab-HRP (Sigma, A0293). Positive controls for the respective molecules included human EpCAM antibody (clone 2G8 from patent no. U.S. Pat. No. 8,236,308 B2) CEACAM-5 antibody (clone hMN15 from patent no. U.S. Pat. No. 8,771,690 B2), human E-Cadherin antibody, mouse IgG2b clone 180215 (R&D systems, MAB1838), human Thrombomodulin antibody, mouse IgG1, clone 501733 (R&D systems, MAB3947). The latter two were detected using goat anti mouse Fc-HRP (Sigma, A9309) as secondary mAb.

[8] = biological target: T3, human EpCAM-hFc (in-house production) (human, UniProt P16422 24-265, limits assumed); experiment: ELISA, antigen coated at 1 ug/ml
T3 construct: not shown: human Fc
T3 sequence (looked up): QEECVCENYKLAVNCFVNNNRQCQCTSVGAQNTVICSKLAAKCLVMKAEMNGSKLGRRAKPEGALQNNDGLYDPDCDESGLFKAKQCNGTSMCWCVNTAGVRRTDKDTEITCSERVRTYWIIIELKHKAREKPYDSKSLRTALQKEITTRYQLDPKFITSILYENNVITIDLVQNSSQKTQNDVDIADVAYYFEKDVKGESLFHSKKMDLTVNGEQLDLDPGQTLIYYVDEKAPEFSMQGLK
Procedure: as §3

[9] = biological target: T4, human CEACAM-5-His-Fc (Sino Biological, 1077-H03H) (human, UniProt P06731 35-685); experiment: ELISA, antigen coated at 1 ug/ml
T4 construct: not shown: His tag and Fc
T4 sequence (looked up): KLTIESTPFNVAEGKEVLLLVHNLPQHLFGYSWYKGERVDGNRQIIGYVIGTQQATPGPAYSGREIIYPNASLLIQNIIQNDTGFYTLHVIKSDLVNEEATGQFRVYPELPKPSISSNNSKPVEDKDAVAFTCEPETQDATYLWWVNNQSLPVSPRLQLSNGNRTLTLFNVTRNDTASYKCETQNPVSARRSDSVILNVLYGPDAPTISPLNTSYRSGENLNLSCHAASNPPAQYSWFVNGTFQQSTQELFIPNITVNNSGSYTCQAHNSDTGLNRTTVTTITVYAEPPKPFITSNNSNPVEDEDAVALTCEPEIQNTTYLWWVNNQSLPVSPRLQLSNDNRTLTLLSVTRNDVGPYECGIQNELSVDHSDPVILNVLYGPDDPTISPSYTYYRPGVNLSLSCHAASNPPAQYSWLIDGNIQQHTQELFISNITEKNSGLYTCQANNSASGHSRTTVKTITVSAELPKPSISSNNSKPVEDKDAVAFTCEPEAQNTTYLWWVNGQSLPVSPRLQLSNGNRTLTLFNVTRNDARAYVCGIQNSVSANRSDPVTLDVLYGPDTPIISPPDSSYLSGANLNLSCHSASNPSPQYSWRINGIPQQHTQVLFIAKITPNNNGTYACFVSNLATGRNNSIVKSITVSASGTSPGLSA
Procedure: as §3

[10] = biological target: T5, human E-Cadherin (R&D systems, 8505-EC) (human, UniProt P12830 155-707); experiment: ELISA, antigen coated at 1 ug/ml
T5 sequence (looked up): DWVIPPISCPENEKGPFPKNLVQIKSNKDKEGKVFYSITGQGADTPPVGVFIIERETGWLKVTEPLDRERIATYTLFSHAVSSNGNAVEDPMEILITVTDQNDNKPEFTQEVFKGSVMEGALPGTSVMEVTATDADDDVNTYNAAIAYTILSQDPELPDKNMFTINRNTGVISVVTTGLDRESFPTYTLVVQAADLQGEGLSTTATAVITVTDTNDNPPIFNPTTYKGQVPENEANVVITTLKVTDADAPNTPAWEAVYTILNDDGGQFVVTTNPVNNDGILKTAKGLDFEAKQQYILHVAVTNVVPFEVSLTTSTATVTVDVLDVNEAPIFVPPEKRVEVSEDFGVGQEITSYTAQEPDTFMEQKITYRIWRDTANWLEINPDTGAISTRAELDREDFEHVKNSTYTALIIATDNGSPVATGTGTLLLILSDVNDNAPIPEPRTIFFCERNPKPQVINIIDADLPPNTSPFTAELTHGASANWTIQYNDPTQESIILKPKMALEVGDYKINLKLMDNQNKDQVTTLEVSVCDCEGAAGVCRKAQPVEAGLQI
Procedure: as §3

human MSLN-His-Avi [11] = biological target: T1, human MSLN-His-Avi; experiment: ELISA, hMSLN-His-Avi coated at 1 ug/ml

Kd (human MSLN-His-Avi [1]): 55.9 nM
Kd (human MSLN-His-Avi [2]): 19.8 nM
Ratio of KD in solution/immobilised for human MSLN-His-Avi (human MSLN-His-Avi [3]): 2.8
B1: FS28-256-274 (in CD137 mAb^2 format) (bispecific antibody, V domains shown)
VH: EVQLLESGGGLVQPGGSLRLSCAASGFTFTHTYMSWVRQAPGKGLEWVSTISPTYSTTNYADSVKGRFTISRDNNKNTLYLQMNSLRAEDTAVYYCARYNAYHAALDYWGQGTLVTVSS
VL: EIVLTQSPGTLSLSPGERATLSCRASQSVSSSYLAWYQQKPGQAPRLLIYGASSRATGIPDRFSGSGSGTDFTLTISRLEPEDFAVYYCQQTVPYPYTFGQGTKVEIK

EC50 [4]: 33.1 nM
Emax (MFI signal) [4]: 4250 MFI
Kd (human MSLN-His-Avi [5]): 23.2 nM
Kd (human MSLN-His-Avi [6]): 26.2 nM
B2: G1-AA/FS28-256 (antibody, human IgG1, kappa, L234A L235A, V domains shown)
VH: B1 VH with H31N, T50N, N75S, A101S, H103Q, A104G, A105G
VL: EIVLTQSPGTLSLSPGERATLSCRASQSVSSSYLAWYQQKPGQAPRLLIYGASSRATGIPDRFSGSGSGTDFTLTISRLEPEDFAVYYCQQSYYYPITFGQGTKVEIKR
notes: IgG1 LALA

Kd (human MSLN-His-Avi [1]): 3.2 nM
Kd (human MSLN-His-Avi [2]): 4.7 nM
Ratio of KD in solution/immobilised for human MSLN-His-Avi (human MSLN-His-Avi [3]): 0.68
B3: FS28-256-027 (in CD137 mAb^2 format, Table 6) (bispecific antibody, V domains shown)
VH: B1 VH with T50N
VL: B1 VL

Kd (human MSLN-His-Avi [1]): 7.4 nM
Kd (human MSLN-His-Avi [2]): 6 nM
Ratio of KD in solution/immobilised for human MSLN-His-Avi (human MSLN-His-Avi [3]): 1.2
B4: FS28-256-273 (in CD137 mAb^2 format) (bispecific antibody, V domains shown)
VH: B1 VH with T50S
VL: B1 VL

Kd (human MSLN-His-Avi [1]): 7.6 nM
Kd (human MSLN-His-Avi [2]): 10.7 nM
Ratio of KD in solution/immobilised for human MSLN-His-Avi (human MSLN-His-Avi [3]): 0.7
B5: FS28-256-272 (in CD137 mAb^2 format) (bispecific antibody, V domains shown)
VH: B1 VH with T50H
VL: B1 VL
notes: Position 55 is IMGT numbering, not the count on the entry

binding result [7]: no binding (tested: 1000 nM)
binding result [8]: no binding (tested: 1000 nM)
binding result [9]: no binding (tested: 1000 nM)
binding result [10]: no binding (tested: 1000 nM)
EC50 [4]: 37.5 nM
Emax (MFI signal) [4]: 2440 MFI
Kd (human MSLN-His-Avi [5]): 29.6 nM
EC50 (human MSLN-His-Avi [11]): ~0.5 nM
maximum binding signal (human MSLN-His-Avi [11]): 3
Kd (human MSLN-His-Avi [6]): 37 nM
B6: G1-AA/FS28-185 (antibody, human IgG1, kappa, L234A L235A, V domains shown)
VH: EVQLLESGGGLVQPGGSLRLSCAASGFTFTTSAMSWVRQAPGKGLEWVSRINPYEGETNYADSVKGRFTISRDNSKNTLYLQMNSLRAEDTAVYYCARGWSIATYYKSAMDYWGQGTLVTVSS
VL: EIVLTQSPGTLSLSPGERATLSCRASQSVSSSYLAWYQQKPGQAPRLLIYGASSRATGIPDRFSGSGSGTDFTLTISRLEPEDFAVYYCQQSSYSAPVTFGQGTKVEIKR
notes: IgG1 LALA
